A word on the Kd: it is the concentration at which binding is half-saturated. Higher therefore signals lower affinity. For orientation: koff means the rate constant with which the complex falls apart. The low end stands for slow dissociation, the high end for fast dissociation. For orientation: kon means the second-order rate constant of association. A high value points to fast association.

T1: His-tagged human TIGIT (human, UniProt Q495A1 22-141)
T1 construct: SPR analyte; also called human TIGIT protein; not shown: His tag
T1 sequence: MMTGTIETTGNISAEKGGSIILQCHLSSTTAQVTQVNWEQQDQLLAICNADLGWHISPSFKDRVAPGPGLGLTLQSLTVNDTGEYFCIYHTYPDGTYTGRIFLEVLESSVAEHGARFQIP

B1: humanized TIGIT-19 antibody 19VH4 + 19VL1.M4 (antibody, V domains shown)
VH: QVQLVQSGAEVKKPGASVKVSCKASGYAFSRYSMYWVRQAPGQGLEWIAFIDPYNGGSTYNQRFRGKATLTVDTSISTAYMELSRLRSDDTAVYYCARGGDYGWYLGVWGQGTLVTVSS
VL: DIQMTQSPSSLSASVGDRVTITCRPSENIYTYLSWYQQKPGKAPKLLIYNAKSLPSGVPSRFSGSGSGTDFTLTISSLQPEDFATYYCQHHYGNPLTFGQGTKVEIK
notes: Full-length IgG, tested as HEK293 supernatant
B2: humanized TIGIT-19 antibody 19VH4.M4 + 19VL1 (antibody, V domains shown)
VH: QVQLVQSGAEVKKPGASVKVSCKASGYAFSRYSMYWVRQAPGQGLEWIAFIDPYSGGSTYNQRFRGKATLTVDTSISTAYMELSRLRSDDTAVYYCARGGDYGWYLGVWGQGTLVTVSS
VL: DIQMTQSPSSLSASVGDRVTITCRPSENIYTYLSWYQQKPGKAPKLLIYNAKTLPEGVPSRFSGSGSGTDFTLTISSLQPEDFATYYCQHHYGNPLTFGQGTKVEIK
notes: as for B1
B3: humanized TIGIT-19 antibody 19VH4 + 19VL1.M7 (antibody, V domains shown)
VH: QVQLVQSGAEVKKPGASVKVSCKASGYAFSRYSMYWVRQAPGQGLEWIAFIDPYNGGSTYNQRFRGKATLTVDTSISTAYMELSRLRSDDTAVYYCARGGDYGWYLGVWGQGTLVTVSS
VL: DIQMTQSPSSLSASVGDRVTITCRASQSIYSYLSWYQQKPGKAPKLLIYNAKSLPSGVPSRFSGSGSGTDFTLTISSLQPEDFATYYCQHHYGNPLTFGQGTKVEIK
notes: as for B1
B4: humanized TIGIT-19 antibody 19VH4 + 19VL1.M5 (antibody, V domains shown)
VH: QVQLVQSGAEVKKPGASVKVSCKASGYAFSRYSMYWVRQAPGQGLEWIAFIDPYNGGSTYNQRFRGKATLTVDTSISTAYMELSRLRSDDTAVYYCARGGDYGWYLGVWGQGTLVTVSS
VL: DIQMTQSPSSLSASVGDRVTITCRASQNIYTYLSWYQQKPGKAPKLLIYNAKSLPSGVPSRFSGSGSGTDFTLTISSLQPEDFATYYCQHHYGNPLTFGQGTKVEIK
notes: as for B1
B5: humanized TIGIT-19 antibody 19VH4 + 19VL1.M6 (antibody, V domains shown)
VH: QVQLVQSGAEVKKPGASVKVSCKASGYAFSRYSMYWVRQAPGQGLEWIAFIDPYNGGSTYNQRFRGKATLTVDTSISTAYMELSRLRSDDTAVYYCARGGDYGWYLGVWGQGTLVTVSS
VL: DIQMTQSPSSLSASVGDRVTITCRASQNIYSYLSWYQQKPGKAPKLLIYNAKSLPSGVPSRFSGSGSGTDFTLTISSLQPEDFATYYCQHHYGNPLTFGQGTKVEIK
notes: as for B1
B6: humanized TIGIT-19 antibody 19VH4.M5 + 19VL1 (antibody, V domains shown)
VH: QVQLVQSGAEVKKPGASVKVSCKASGYAFSRYSMYWVRQAPGQGLEWIAFIDPYNGGSTYAQKFQGKATLTVDTSISTAYMELSRLRSDDTAVYYCARGGDYGWYLGVWGQGTLVTVSS
VL: DIQMTQSPSSLSASVGDRVTITCRPSENIYTYLSWYQQKPGKAPKLLIYNAKTLPEGVPSRFSGSGSGTDFTLTISSLQPEDFATYYCQHHYGNPLTFGQGTKVEIK
notes: as for B1
B7: humanized TIGIT-19 antibody 19VH4.M6 + 19VL1 (antibody, V domains shown)
VH: QVQLVQSGAEVKKPGASVKVSCKASGYTFTRYSMYWVRQAPGQGLEWIAFIDPYSGGSTYNQRFRGKATLTVDTSISTAYMELSRLRSDDTAVYYCARGGDYGWYLGVWGQGTLVTVSS
VL: DIQMTQSPSSLSASVGDRVTITCRPSENIYTYLSWYQQKPGKAPKLLIYNAKTLPEGVPSRFSGSGSGTDFTLTISSLQPEDFATYYCQHHYGNPLTFGQGTKVEIK
notes: as for B1

The assay addresses T1, His-tagged human TIGIT. Put plainly: SPR experiment 2, IgG from HEK293 supernatant captured.
B1: binding was characterised by a dissociation constant (Kd) of 0.023 nM, the koff was 2.7e-05 s⁻¹ and the kon worked out at 1.2e+06 M⁻¹ s⁻¹.
B2: the Kd is 0.12 nM, the koff came to 0.00013 s⁻¹ and the kon was 1.1e+06 M⁻¹ s⁻¹.
B3 showed a Kd of 0.13 nM, a koff of 0.00017 s⁻¹ and a kon of 1.3e+06 M⁻¹ s⁻¹.
As for B4, the Kd is 0.081 nM, the koff turned out to be 8.7e-05 s⁻¹ and the kon is 1.1e+06 M⁻¹ s⁻¹.
The matching figures for B5: 0.15 nM, 0.00015 s⁻¹ and 1e+06 M⁻¹ s⁻¹.
B6 had a Kd of 0.16 nM, a koff of 0.0002 s⁻¹ and a kon of 1.3e+06 M⁻¹ s⁻¹.
For the molecule B7, the affinity, expressed as Kd, was 0.2 nM; the off-rate constant (koff) was determined as 0.00021 s⁻¹; the kon was found to be 1e+06 M⁻¹ s⁻¹.

Values taken from US20260139048A1 (NANJING LEGEND BIOTECH, published 2026).
